4 molecules from publication PMC12906810, “ZmMYB127 Modulates Maize Kernel Texture and Size by Integrating the Synthesis of Starch, Zein Proteins and Auxin” can be followed below.

B1: z1D2 promoter WT probe (dsDNA)
DNA 1: GTTGAAATTGATTGATATCCACAAATTTTGTTAA
DNA 2: TTAACAAAATTTGTGGATATCAATCAATTTCAAC
B2: z1C1 promoter WT probe (dsDNA)
DNA 1: TCTACTAAGCTTGTTCAACCACGAGAAGAATATTAG
DNA 2: CTAATATTCTTCTCGTGGTTGAACAAGCTTAGTAGA
B3: Bt1 promoter WT probe (dsDNA)
DNA 1: CACGCGCCGCCATTTCTGTTGCGAATGAGTCCATGG
DNA 2: CCATGGACTCATTCGCAACAGAAATGGCGGCGCGTG
B4: Ae1 promoter WT probe (dsDNA)
DNA 1: GAGAATGAAAGCGAACTGTTGCTCACGGACTCTAAG
DNA 2: CTTAGAGTCCGTGAGCAACAGTTCGCTTTCATTCTC

Sequence of ZmMYB127 (A0A804N6V3 entry or part of it): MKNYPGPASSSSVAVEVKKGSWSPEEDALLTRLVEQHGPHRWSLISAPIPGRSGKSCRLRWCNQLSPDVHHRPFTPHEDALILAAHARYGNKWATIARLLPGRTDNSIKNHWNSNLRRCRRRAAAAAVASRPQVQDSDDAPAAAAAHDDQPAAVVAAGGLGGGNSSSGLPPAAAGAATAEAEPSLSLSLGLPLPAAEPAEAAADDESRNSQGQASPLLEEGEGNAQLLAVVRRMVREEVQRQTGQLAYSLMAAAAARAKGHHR

The series has as its target ZmMYB127 (Zea mays (inbred B73), UniProt A0A804N6V3 1-263). Put plainly: EMSA; EMSA with LightShift Chemiluminescent EMSA kit protocol, 25 °C, 30 min, native PAGE; buffer, salt and pH not stated. The conditions noted are these: protein: recombinant; tags: GST (N-terminal, pGEX-6T); label: biotin (end); blunt. On the technique in general: Mobility shift assays separate free from complexed probe on a gel.
B1: the binding result is recorded as “binds”.

On to B2, for which the binding result is listed as “binds”. The same measure for B3: “binds”. On to B4, for which the binding result is reported as “binds”.
